The text below walks through data of patent US20240043504A1.

The target of the experiment is SARS-CoV-2 spike protein variant Y483A (Table 27), on VSV pseudoparticles (SARS-CoV-2) (UniProt P0DTC2). Put plainly: cell-based or functional assay.

For mAb10987 (antibody), the Relative neutralization (5 µg/ml, Vero cells) stood at 99%.
